Earlier results, collected in article PMC5487772.
Read-outs that look alike come from different tables or passages of the source.

Tests used:
phosphacan [1] = target: phosphacan (UniProt Q62656)
phosphacan [2] = target: phosphacan (UniProt Q62656); remark: listed apart in the source

UniProt Q62656, sequence (Q62656 25-1637): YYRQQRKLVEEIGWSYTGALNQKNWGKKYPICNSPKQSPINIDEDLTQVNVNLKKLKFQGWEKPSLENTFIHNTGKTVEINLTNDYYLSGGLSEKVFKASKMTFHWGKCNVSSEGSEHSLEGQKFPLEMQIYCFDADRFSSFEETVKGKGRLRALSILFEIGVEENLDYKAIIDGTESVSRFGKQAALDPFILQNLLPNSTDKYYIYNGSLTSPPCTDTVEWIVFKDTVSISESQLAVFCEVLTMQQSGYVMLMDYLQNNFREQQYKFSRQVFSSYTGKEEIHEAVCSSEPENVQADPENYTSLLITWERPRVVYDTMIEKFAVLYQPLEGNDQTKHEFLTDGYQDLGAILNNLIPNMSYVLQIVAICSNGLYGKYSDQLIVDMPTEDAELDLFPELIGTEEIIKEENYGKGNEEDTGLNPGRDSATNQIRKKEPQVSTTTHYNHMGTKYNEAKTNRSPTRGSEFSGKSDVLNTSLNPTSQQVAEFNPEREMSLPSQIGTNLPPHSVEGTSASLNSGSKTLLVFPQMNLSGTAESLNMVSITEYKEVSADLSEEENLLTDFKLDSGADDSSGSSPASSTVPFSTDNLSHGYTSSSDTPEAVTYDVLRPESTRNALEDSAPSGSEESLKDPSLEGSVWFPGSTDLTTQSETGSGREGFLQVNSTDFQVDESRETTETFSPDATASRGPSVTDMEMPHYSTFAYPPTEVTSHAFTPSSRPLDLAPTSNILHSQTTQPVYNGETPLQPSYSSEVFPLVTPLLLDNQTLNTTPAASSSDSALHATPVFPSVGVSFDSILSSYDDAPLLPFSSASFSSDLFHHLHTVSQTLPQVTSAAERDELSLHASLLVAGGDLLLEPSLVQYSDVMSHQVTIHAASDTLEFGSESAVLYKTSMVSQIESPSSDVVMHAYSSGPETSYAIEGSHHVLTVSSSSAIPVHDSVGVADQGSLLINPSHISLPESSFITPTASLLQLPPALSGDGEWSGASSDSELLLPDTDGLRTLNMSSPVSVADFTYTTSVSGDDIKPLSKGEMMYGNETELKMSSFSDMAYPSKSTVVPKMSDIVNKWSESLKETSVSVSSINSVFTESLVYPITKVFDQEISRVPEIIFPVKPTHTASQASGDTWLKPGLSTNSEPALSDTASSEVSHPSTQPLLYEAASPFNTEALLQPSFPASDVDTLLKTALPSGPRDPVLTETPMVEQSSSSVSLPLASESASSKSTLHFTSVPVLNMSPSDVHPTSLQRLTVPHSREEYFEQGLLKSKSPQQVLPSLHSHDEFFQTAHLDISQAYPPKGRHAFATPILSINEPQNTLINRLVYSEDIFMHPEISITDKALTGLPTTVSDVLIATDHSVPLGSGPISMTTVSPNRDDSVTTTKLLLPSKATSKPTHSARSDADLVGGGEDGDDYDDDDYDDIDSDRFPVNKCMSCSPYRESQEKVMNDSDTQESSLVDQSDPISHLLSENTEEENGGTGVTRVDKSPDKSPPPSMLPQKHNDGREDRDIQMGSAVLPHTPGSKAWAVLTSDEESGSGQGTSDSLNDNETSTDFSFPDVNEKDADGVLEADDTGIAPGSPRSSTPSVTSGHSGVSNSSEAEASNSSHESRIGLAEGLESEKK

Row | Substance | Kd (phosphacan [1]) [nM] | Kd (phosphacan [2]) [nM]
1 | Ng-CAM (from UniProt Q03696) | 0.5 | –
2 | N-CAM (from UniProt P13591) | – | 0.5
